The results in this text go back to patent publication US20190055314A1 (ADAGENE, published 2019).

For test [1], the target named is T1, CD137-hisFc fusion protein (Sino Biological Cat 10041-H03H) (human, UniProt Q07011 24-186).
T1 construct: Bought; also called recombinant human CD137 (fused with human Fc and His tag); not shown: His tag and human Fc
The experiment in a line: BLI Octet, Fab.

Test [2] addresses T1, CD137-hisFc fusion protein (Sino …). The experiment in a line: BLI Octet, Fab. This is another data set of the same source.

Where two headings read alike, the source gives them in different places.

B1: Fab 5404 (Fab, V domains shown)
VH: EVQLVESGGGLVQPGGSLRLSCAASGYSISSGYHWAWIRQAPGKGLEWIGEIYHSGSTYYSPSLKSRVTISRDNSKNTLYLQLNSLRAEDTAVYYCARSPYYYGVFDYWGQGTLVTVSS
VL: DIQLTQSPSSLSASVGDRVTITCSASSRVGSVYWYQQKPGKAPKLLIYDASNLETGVPSRFSGSGSGTDFTLTISSLQPEDFATYYCQQYTHDPVTFGQGTKVEIKR
notes: Fab from E. coli; also called VH34/VL34
As a reminder, the Kd is the constant that tells how readily two partners part at equilibrium. Higher therefore signals lower affinity. In general, koff refers to a measure of how fast the partners let go of each other. A lower koff goes with slow dissociation. The term kon denotes the second-order rate constant of association. Lower therefore signals slower complex formation. For the molecule B1, in test [1], binding was put at a Kd of 3.3 nM, the dissociation rate constant (koff) turned out to be 0.0013 s⁻¹ and the kon was found to be 400000 M⁻¹ s⁻¹. In test [2], this molecule displayed a dissociation constant Kd of 3.3 nM, a koff of 0.0013 s⁻¹ and a kon of 395000 M⁻¹ s⁻¹.

B2: Fab 5360 (Fab, V domains shown)
VH: EVQLVESGGGLVQPGGSLRLSCAASGYSITSGHYWNWIRQAPGKGLEWVSGISGDGSSTYYADSVKGRFTISRDNSKNTLYLQLNSLRAEDTAVYYCARGGSDAVLGDWFAYWGQGTLVTVSS
VL: DIQLTQSPSSLSASVGDRVTITCRASQSISSYLAWYQQKPGKAPKLLIYDASNLETGVPSRFSGSGSGTDFTLTISSLQPEDFATYYCQQGYSTWTFGQGTKVEIKR
notes: Fab from E. coli; also called VH28/VL28
In test [1], B2 came in with a Kd of 24 nM, a koff of 0.0029 s⁻¹ and an association rate constant (kon) of 120000 M⁻¹ s⁻¹. Besides, in test [2], the Kd was 24.1 nM, the koff amounted to 0.00289 s⁻¹ and the on-rate (kon) is 120000 M⁻¹ s⁻¹.

B3: Fab 5359 (Fab, V domains shown)
VH: EVQLVESGGGLVQPGGSLRLSCAASGFSLSTSGVGVGWIRQAPGKGLEWLALIDWADDKYYSPSLKSRLTISRDNSKNTLYLQLNSLRAEDTAVYYCARGGSDAVLGDWFAYWGQGTLVTVSS
VL: DIQLTQSPSSLSASVGDRVTITCRASQGIGSYLAWYQQKPGKAPKLLIYDASNLETGVPSRFSGSGSGTDFTLTISSLQPEDFATYYCQQGYSIWTFGQGTKVEIKR
notes: Fab from E. coli; also called VH27/VL27
In test [1], B3 displayed an equilibrium dissociation constant (Kd) of 0.71 nM, an off-rate constant (koff) of 0.00033 s⁻¹ and a kon of 460000 M⁻¹ s⁻¹. In test [2], the Kd stood at 0.71 nM, the off-rate (koff) is 0.00033 s⁻¹ and the on-rate (kon) turned out to be 464000 M⁻¹ s⁻¹.

B4: Fab 5413 (Fab, V domains shown)
VH: EVQLVESGGGLVQPGGSLRLSCAASGFSLSTGGVAVGWIRQAPGKGLEWLALIDWDGDKSYSTSLKSRLTISRDNSKNTLYLQLNSLRAEDTAVYYCAREGSTAVVGDWFDYWGQGTLVTVSS
VL: DIQLTQSPSSLSASVGDRVTITCRASQGISRYLAWYQQKPGKAPKLLIYDASNRATGIPSRFSGSGSGTDFTLTISSLQPEDFATYYCQQGYSLWTFGQGTKVEIKR
notes: Fab from E. coli; also called VH38/VL38
In test [1], B4 gave an equilibrium dissociation constant (Kd) of 0.99 nM, an off-rate (koff) of 0.00055 s⁻¹ and an association rate constant (kon) of 560000 M⁻¹ s⁻¹. In addition, in test [2], the Kd is 0.993 nM, the dissociation rate constant (koff) stood at 0.000551 s⁻¹ and the kon worked out at 555000 M⁻¹ s⁻¹.

B5: Fab 5371 (Fab, V domains shown)
VH: EVQLVESGGGLVQPGGSLRLSCAASGFSLSTSGVGVAWIRQAPGKGLEWVSYISGDGGSTYYADSVKGRFTISRDNSKNTLYLQLNSLRAEDTAVYYCAREGSDVVAGDWFAYWGQGTLVTVSS
VL: DIQLTQSPSSLSASVGDRVTITCRASQDISSVLAWYQQKPGKAPKLLIYDASSLESGVPSRFSGSGSGTDFTLTISSLQPEDFATYYCQQGYQIWTFGQGTKVEIKR
notes: Fab from E. coli; also called VH33/VL33
Consider B5, for which, in test [2], binding was put at a Kd of 3.97 nM, the off-rate constant (koff) amounted to 0.00479 s⁻¹ and the kon was determined as 1.21e+06 M⁻¹ s⁻¹.

B6: Fab 5408 (Fab, V domains shown)
VH: EVQLVESGGGLVQPGGSLRLSCAASGYSITSGYHWSWIRQAPGKGLEWVSSISGYGDTTYYADSVKGRFTISRDNSKNTLYLQLNSLRAEDTAVYYCAREGSDTVLGDWFAYWGQGTLVTVSS
VL: DIQLTQSPSSLSASVGDRVTITCQASQDIRTYLAWYQQKPGKAPKLLIYDASNLETGVPSRFSGSGSGTDFTLTISSLQPEDFATYYCQQGYSIWTFGQGTKVEIKR
notes: Fab from E. coli; also called VH36/VL36
B6: in test [1], the Kd was found to be 24 nM, the koff is 0.0075 s⁻¹ and the kon amounted to 320000 M⁻¹ s⁻¹. Also, in test [2], the Kd was 23.6 nM, the koff is 0.0075 s⁻¹ and the kon was 318000 M⁻¹ s⁻¹.

B7: Fab 5302 (Fab, V domains shown)
VH: EVQLVESGGGLVQPGGSLRLSCAASGFSLSTGGVGVAWIRQAPGKGLEWVSSISGYGSTTYYADSVKGRFTISRDNSKNTLYLQLNSLRAEDTAVYYCAREGSDAVLGDWFGYWGQGTLVTVSS
VL: DIQLTQSPSSLSASVGDRVTITCQASQDITTYLAWYQQKPGKAPKLLIYDASNRATGIPSRFSGSGSGTDFTLTISSLQPEDFATYYCQQGYYLWTFGQGTKVEIKR
notes: Fab from E. coli; also called VH13/VL13
In test [1], B7 returned a dissociation constant Kd of 1.2 nM, a koff of 0.00043 s⁻¹ and an association rate constant (kon) of 350000 M⁻¹ s⁻¹. Moreover, in test [2], the affinity, expressed as Kd, was 1.21 nM; the koff was 0.000426 s⁻¹; the kon came out at 354000 M⁻¹ s⁻¹.

B8: Fab 5409 (Fab, V domains shown)
VH: EVQLVESGGGLVQPGGSLRLSCAASGYSISSGHHWAWIRQAPGKGLEWVSVISGSGSSTYYADSVKGRFTISRDNSKNTLYLQLNSLRAEDTAVYYCAREGSDTVLGDWFAYWGQGTLVTVSS
VL: DIQLTQSPSSLSASVGDRVTITCRASQGISSYLAWYQQKPGKAPKLLIYDASNLETGVPSRFSGSGSGTDFTLTISSLQPEDFATYYCQQGYSTWTFGQGTKVEIKR
notes: Fab from E. coli; also called VH37/VL37
In test [1], B8 had a Kd of 17 nM, an off-rate constant (koff) of 0.0043 s⁻¹ and an association rate constant (kon) of 250000 M⁻¹ s⁻¹. In test [2], this molecule showed a dissociation constant (Kd) of 17 nM, an off-rate constant (koff) of 0.00427 s⁻¹ and an association rate constant (kon) of 251000 M⁻¹ s⁻¹.

B9: Fab 5342 (Fab, V domains shown)
VH: EVQLVESGGGLVQPGGSLRLSCAASGFSLSTGGVAVGWIRQAPGKGLEWLALIDWAGDKSYSTSLKSRLTISRDNSKNTLYLQLNSLRAEDTAVYYCAREGEDAVTGDWFAYWGQGTLVTVSS
VL: DIQLTQSPSSLSASVGDRVTITCQASQDIRTYLAWYQQKPGKAPKLLIYDASNRATGIPSRFSGSGSGTDFTLTISSLQPEDFATYYCQQGYSIWTFGQGTKVEIKR
notes: Fab from E. coli; also called VH21/VL21
In test [1], B9 returned a Kd of 39 nM, an off-rate constant (koff) of 0.0061 s⁻¹ and an association rate constant (kon) of 160000 M⁻¹ s⁻¹. Besides, in test [2], the Kd came to 38.9 nM, the off-rate (koff) is 0.00612 s⁻¹ and the association rate constant (kon) worked out at 157000 M⁻¹ s⁻¹.

B10: Fab 5303 (Fab, V domains shown)
VH: EVQLVESGGGLVQPGGSLRLSCAASGFSLSTSGVAVGWIRQAPGKGLEWLALIDWADDKYYSPSLKSRLTISRDNSKNTLYLQLNSLRAEDTAVYYCAREGSDAVLGDWFAYWGQGTLVTVSS
VL: DIQLTQSPSSLSASVGDRVTITCRASQDISTFLAWYQQKPGKAPKLLIYDASSLESGVPSRFSGSGSGTDFTLTISSLQPEDFATYYCQQAYSIWTFGQGTKVEIKR
notes: Fab from E. coli; also called VH14/VL14
For the molecule B10, in test [1], the affinity, expressed as Kd, was 5.1 nM; the koff stood at 0.0051 s⁻¹; the on-rate (kon) is 1e+06 M⁻¹ s⁻¹. In test [2], this molecule displayed a Kd of 5.12 nM, a koff of 0.00509 s⁻¹ and a kon of 995000 M⁻¹ s⁻¹.

B11: Fab 5310 (Fab, V domains shown)
VH: EVQLVESGGGLVQPGGSLRLSCAASGFSLSTSGVGVGWIRQAPGKGLEWLALIDWDDDKYYSPSLKSRLTISRDNSKNTLYLQLNSLRAEDTAVYYCARGGSDTVLGDWFAYWGQGTLVTVSS
VL: DIQLTQSPSSLSASVGDRVTITCRASQSVSPYLAWYQQKPGKAPKLLIYDASSLESGVPSRFSGSGSGTDFTLTISSLQPEDFATYYCQQGYSLWTFGQGTKVEIKR
notes: Fab from E. coli; also called VH15/VL15
Consider B11, for which, in test [1], the dissociation constant Kd is 5.7 nM, the koff was found to be 0.0047 s⁻¹ and the on-rate constant (kon) came out at 810000 M⁻¹ s⁻¹. In test [2], this molecule came in with a dissociation constant Kd of 5.72 nM, a koff of 0.00465 s⁻¹ and a kon of 813000 M⁻¹ s⁻¹.

B12: Fab 5314 (Fab, V domains shown)
VH: EVQLVESGGGLVQPGGSLRLSCAASGFSLSTGGVAVGWIRQAPGKGLEWLALIDWAGDKSYSTSLKSRLTISRDNSKNTLYLQLNSLRAEDTAVYYCARGGSDTVLGDWFAYWGQGTLVTVSS
VL: DIQLTQSPSSLSASVGDRVTITCRASQGVSPYLAWYQQKPGKAPKLLIYDASNRATGIPSRFSGSGSGTDFTLTISSLQPEDFATYYCQQGYSTWTFGQGTKVEIKR
notes: Fab from E. coli; also called VH16/VL16
In the case of B12, in test [1], the affinity, expressed as Kd, was 8.4 nM; the koff amounted to 0.0018 s⁻¹; the on-rate constant (kon) stood at 210000 M⁻¹ s⁻¹. In addition, in test [2], the Kd was determined as 8.39 nM, the off-rate (koff) was determined as 0.00177 s⁻¹ and the kon turned out to be 210000 M⁻¹ s⁻¹.

B13: Fab 5370 (Fab, V domains shown)
VH: EVQLVESGGGLVQPGGSLRLSCAASGFSLSTSGVAVAWIRQAPGKGLEWLALIDWDDDKRYSTSLKSRLTISRDNSKNTLYLQLNSLRAEDTAVYYCAREGSTTVVGDWFDYWGQGTLVTVSS
VL: DIQLTQSPSSLSASVGDRVTITCRASQGIGTYLAWYQQKPGKAPKLLIYDASNRATGIPSRFSGSGSGTDFTLTISSLQPEDFATYYCQQGYSLWTFGQGTKVEIKR
notes: Fab from E. coli; also called VH32/VL32
As for B13, in test [1], the Kd is 1.9 nM, the off-rate constant (koff) was 0.001 s⁻¹ and the kon was 520000 M⁻¹ s⁻¹. In test [2], the dissociation constant Kd stood at 1.91 nM, the off-rate (koff) turned out to be 0.001 s⁻¹ and the kon amounted to 524000 M⁻¹ s⁻¹.

B14: Fab 5318 (Fab, V domains shown)
VH: EVQLVESGGGLVQPGGSLRLSCAASGFSLSTSGVAVGWIRQAPGKGLEWLALIDWDDDKYYSTSLKSRLTISRDNSKNTLYLQLNSLRAEDTAVYYCAREGSTAVAGDWFAYWGQGTLVTVSS
VL: DIQLTQSPSSLSASVGDRVTITCQASQDIRTFLAWYQQKPGKAPKLLIYDASNRATGIPSRFSGSGSGTDFTLTISSLQPEDFATYYCQQGYSTWTFGQGTKVEIKR
notes: Fab from E. coli; also called VH18/VL18
As to B14, in test [1], the affinity, expressed as Kd, was 19 nM; the koff came to 0.0027 s⁻¹; the on-rate constant (kon) worked out at 140000 M⁻¹ s⁻¹. In test [2], this molecule gave a Kd of 19 nM, a dissociation rate constant (koff) of 0.00269 s⁻¹ and a kon of 141000 M⁻¹ s⁻¹.

B15: Fab 4072 (Fab, V domains shown)
VH: EVQLVESGGGLVQPGGSLRLSCAASGFSLSTSGVAVSWIRQAPGKGLEWIGIINPNFGDTNYAQKFQGRVTISRDNSKNTLYLQLNSLRAEDTAVYYCARDEYYGGSYYFDYWGQGTLVTVSS
VL: DIQLTQSPSSLSASVGDRVTITCRASQDVRTAVAWYQQKPGKAPKLLIYDASNLETGVPSRFSGSGSGTDFTLTISSLQPEDFATYYCQQSYDWPPTFGQGTKVEIKR
notes: Fab from E. coli; also called VH2/VL2
For B15, in test [1], binding was put at a Kd of 7 nM, the off-rate (koff) was determined as 0.0011 s⁻¹ and the association rate constant (kon) stood at 150000 M⁻¹ s⁻¹. Besides, in test [2], the Kd stood at 6.95 nM, the off-rate (koff) stood at 0.00107 s⁻¹ and the kon came out at 154000 M⁻¹ s⁻¹.
